Our source for the difference in the absorption between the added group and the blank solution values is patent US20030017619A1.

This experiment deals with IgG class antibody in the serum of a patient with IgA nephropathy which showed positive in example 1. As to the kind of experiment: inhibition ELISA: serum pre-incubated with 1 µg/ml peptide solution (1:1), then added to immobilized hinge peptide-BSA; anti-human IgG, absorbancy at 490 nm.

Molecule PSPST [synthetic peptide Pro Ser Pro Ser Thr] displayed a difference in the absorption between the added group and the blank solution greater than 10%.
PSPSC [synthetic peptide Pro Ser Pro Ser Cys] returned a difference in the absorption between the added group and the blank solution greater than 10%.
Molecule PSTPP [synthetic peptide Pro Ser Thr Pro Pro] came in with a difference in the absorption between the added group and the blank solution greater than 10%.
The same measure for PVPST [synthetic peptide Pro Val Pro Ser Thr]: greater than 10%; for PTPSP [synthetic peptide Pro Thr Pro Ser Pro]: greater than 10%.
The same measure for TPPTP [synthetic peptide Thr Pro Pro Thr Pro]: greater than 10%.
